{"source": "the MegaScale stability set (Tsuboyama et al. 2023)", "parents": {"B1": {"name": "2K2A (parent)", "chain": "ELREAFRLYDKEGNGYISTDVMREILAELDETLSSEDLDAMIDEIDADGSGTVDFEEFMGVMT"}}}
{"variants_of": "B1", "assay": "folding stability dG (cDNA display proteolysis); higher = more stable", "details": "PBS, room temperature", "units": {"folding stability dG": "kcal/mol"}}
{"variant": "ELREAFRLYDKEGNGYISTDVMREILAELDETLSSEDLDSMIDEIDADGSGTVDFEEFMGVMT", "folding stability dG": 1.73}
{"variant": "ELREAFRLYDKEGNGYISTDVMREILAELDETLSSEDLDGMIDEIDADGSGTVDFEEFMGVMT", "folding stability dG": 1.34}
{"variant": "ELREAFRLYDKEGNGYISTDVMREILAELDETLSSEDLDLMIDEIDADGSGTVDFEEFMGVMT", "folding stability dG": 1.85}
{"variant": "ELREAFRLYDKEGNGYISTDVMREILAELDETLSSEDLDHMIDEIDADGSGTVDFEEFMGVMT", "folding stability dG": 2.19}
{"variant": "ELREAFRLYDKEGNGYISTDVMREILAELDETLSSEDLDKMIDEIDADGSGTVDFEEFMGVMT", "folding stability dG": 2.11}
{"variant": "ELREAFRLYDKEGNGYISTDVMREILAELDETLSSEDLDNMIDEIDADGSGTVDFEEFMGVMT", "folding stability dG": 1.73}
{"variant": "ELREAFRLYDKEGNGYISTDVMREILAELDETLSSEDLDDMIDEIDADGSGTVDFEEFMGVMT", "folding stability dG": 1.4}
{"variant": "ELREAFRLYDKEGNGYISTDVMREILAELDETLSSEDLDRMIDEIDADGSGTVDFEEFMGVMT", "folding stability dG": 2.31}
{"variant": "ELREAFRLYDKEGNGYISTDVMREILAELDETLSSEDLDFMIDEIDADGSGTVDFEEFMGVMT", "folding stability dG": 1.77}
{"variant": "ELREAFRLYDKEGNGYISTDVMREILAELDETLSSEDLDCMIDEIDADGSGTVDFEEFMGVMT", "folding stability dG": 1.93}
{"variant": "ELREAFRLYDKEGNGYISTDVMREILAELDETLSSEDLDQMIDEIDADGSGTVDFEEFMGVMT", "folding stability dG": 1.8}
{"variant": "ELREAFRLYDKEGNGYISTDVMREILAELDETLSSEDLDMMIDEIDADGSGTVDFEEFMGVMT", "folding stability dG": 1.76}
{"variant": "ELREAFRLYDKEGNGYISTDVMREILAELDETLSSEDLDPMIDEIDADGSGTVDFEEFMGVMT", "folding stability dG": -0.715}
{"variant": "ELREAFRLYDKEGNGYISTDVMREILAELDETLSSEDLDEMIDEIDADGSGTVDFEEFMGVMT", "folding stability dG": 1.51}
{"variant": "ELREAFRLYDKEGNGYISTDVMREILAELDETLSSEDLDIMIDEIDADGSGTVDFEEFMGVMT", "folding stability dG": 1.77}
{"variant": "ELREAFRLYDKEGNGYISTDVMREILAELDETLSSQDLDAMIDEIDADGSGTVDFEEFMGVMT", "folding stability dG": 1.82}
{"variant": "ELREAFRLYDKEGNGYISTDVMREILAELDETLSSTDLDAMIDEIDADGSGTVDFEEFMGVMT", "folding stability dG": 1.82}
{"variant": "ELREAFRLYDKEGNGYISTDVMREILAELDETLSSHDLDAMIDEIDADGSGTVDFEEFMGVMT", "folding stability dG": 1.65}
{"variant": "ELREAFRLYDKEGNGYISTDVMREILAELDETLSSMDLDAMIDEIDADGSGTVDFEEFMGVMT", "folding stability dG": 1.7}
{"variant": "ELREAFRLYDKEGNGYISTDVMREILAELDETLSSSDLDAMIDEIDADGSGTVDFEEFMGVMT", "folding stability dG": 1.88}
{"variant": "ELREAFRLYDKEGNGYISTDVMREILAELDETLSSVDLDAMIDEIDADGSGTVDFEEFMGVMT", "folding stability dG": 1.69}
{"variant": "ELREAFRLYDKEGNGYISTDVMREILAELDETLSSIDLDAMIDEIDADGSGTVDFEEFMGVMT", "folding stability dG": 1.53}
{"variant": "ELREAFRLYDKEGNGYISTDVMREILAELDETLSSYDLDAMIDEIDADGSGTVDFEEFMGVMT", "folding stability dG": 1.81}
{"variant": "ELREAFRLYDKEGNGYISTDVMREILAELDETLSSWDLDAMIDEIDADGSGTVDFEEFMGVMT", "folding stability dG": 1.87}
{"variant": "ELREAFRLYDKEGNGYISTDVMREILAELDETLSSKDLDAMIDEIDADGSGTVDFEEFMGVMT", "folding stability dG": 1.81}
{"variant": "ELREAFRLYDKEGNGYISTDVMREILAELDETLSSLDLDAMIDEIDADGSGTVDFEEFMGVMT", "folding stability dG": 1.66}
{"variant": "ELREAFRLYDKEGNGYISTDVMREILAELDETLSSPDLDAMIDEIDADGSGTVDFEEFMGVMT", "folding stability dG": 1.04}
{"variant": "ELREAFRLYDKEGNGYISTDVMREILAELDETLSSNDLDAMIDEIDADGSGTVDFEEFMGVMT", "folding stability dG": 1.66}
{"variant": "ELREAFRLYDKEGNGYISTDVMREILAELDETLSSRDLDAMIDEIDADGSGTVDFEEFMGVMT", "folding stability dG": 1.82}
{"variant": "ELREAFRLYDKEGNGYISTDVMREILAELDETLSSEDLVAMIDEIDADGSGTVDFEEFMGVMT", "folding stability dG": 0.996}
{"variant": "ELREAFRLYDKEGNGYISTDVMREILAELDETLSSEDLRAMIDEIDADGSGTVDFEEFMGVMT", "folding stability dG": 1.41}
{"variant": "ELREAFRLYDKEGNGYISTDVMREILAELDETLSSEDLEAMIDEIDADGSGTVDFEEFMGVMT", "folding stability dG": 1.4}
{"variant": "ELREAFRLYDKEGNGYISTDVMREILAELDETLSSEDLTAMIDEIDADGSGTVDFEEFMGVMT", "folding stability dG": 1.3}
{"variant": "ELREAFRLYDKEGNGYISTDVMREILAELDETLSSEDLIAMIDEIDADGSGTVDFEEFMGVMT", "folding stability dG": 1.33}
{"variant": "ELREAFRLYDKEGNGYISTDVMREILAELDETLSSEDLCAMIDEIDADGSGTVDFEEFMGVMT", "folding stability dG": 1.16}
{"variant": "ELREAFRLYDKEGNGYISTDVMREILAELDETLSSEDLKAMIDEIDADGSGTVDFEEFMGVMT", "folding stability dG": 1.48}
{"variant": "ELREAFRLYDKEGNGYISTDVMREILAELDETLSSEDLYAMIDEIDADGSGTVDFEEFMGVMT", "folding stability dG": 1.06}
{"variant": "ELREAFRLYDKEGNGYISTDVMREILAELDETLSSEDLWAMIDEIDADGSGTVDFEEFMGVMT", "folding stability dG": 1.22}
{"variant": "ELREAFRLYDKEGNGYISTDVMREILAELDETLSSEDLGAMIDEIDADGSGTVDFEEFMGVMT", "folding stability dG": 0.971}
{"variant": "ELREAFRLYDKEGNGYISTDVMREILAELDETLSSEDLQAMIDEIDADGSGTVDFEEFMGVMT", "folding stability dG": 1.57}
{"variant": "ELREAFRLYDKEGNGYISTDVMREILAELDETLSSEDLLAMIDEIDADGSGTVDFEEFMGVMT", "folding stability dG": 1.3}
{"variant": "ELREAFRLYDKEGNGYISTDVMREILAELDETLSSEDLFAMIDEIDADGSGTVDFEEFMGVMT", "folding stability dG": 1.15}
